The text below walks through data of IntAct's records for PubMed 12620189.

The chains are these.
B1: SCOCO-like protein 1 (Saccharomyces cerevisiae), Q3E784 (parent)
chain: MSAENISTGSPTGKQPSSEVNLGEREAGTKNERMMRQTKLLKDTLDLLWNKTLEQQEVCEQLKQENDYLEDYIGNLMRSSNVLEK
partner: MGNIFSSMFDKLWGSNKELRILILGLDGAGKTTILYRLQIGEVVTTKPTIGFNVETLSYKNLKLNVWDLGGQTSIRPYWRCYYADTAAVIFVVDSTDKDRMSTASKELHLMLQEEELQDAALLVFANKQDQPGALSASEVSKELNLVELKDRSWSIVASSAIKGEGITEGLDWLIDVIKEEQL

Variants of B1 are the subject of this assay. Particulars: with arl1_yeast ARL1, P38116.
Consider Y72A, for which the “effect of a mutation on the interaction” value is “disrupting interaction”.
